Data: patent US20230097573A1 (LG CHEM, published 2023)
Values belong to the binder of their own block, whether it stands above or below them.

Experiments:
Hu FcRn (BPS Bioscience) [1] = target: T1, Hu FcRn (BPS Bioscience) (human, UniProt P55899 24-297; P61769 21-119); assay: ELISA, huFcRn coated, pH 7.4
T1 construct: Bought recombinant protein coated on ELISA plates; also called human FcRn; human neonatal Fc receptor
Protocol: (§1) The binding of AFFIMER® to hu-FcRn was evaluated by enzyme linked immunosorbent assay (ELISA) in 384 well plate format. Hu FcRn (BPS Bioscience) was coated at 5 μg/ml on the plate in PBS, pH 7.4. Plates were washed 3 times with 100 μl of washing buffer (PBS, Tween 20 0.05%, pH 7.4) with a plate washer and saturated with Casein 5% (Sigma) in MES pH 7.4 for 60 minutes at room temperature (25±1° C.). Plates were washed as described previously. AFFIMER® and controls (mAb anti hFcRn (ADM31), blank) were then diluted in duplicate, and loaded on the plate for 90 minutes at room temperature (25±1° C.). Plates were washed 3 times as described previously. Biotinylated polyclonal antibody anti Cystatin (R&D Systems) was then diluted in dilution Buffer (1% casein, 0.01% Tween 20, and 8 mM MES. It is in pH 7.4) and incubated 60 minutes at room temperature (25±1° C.). Plates were washed 3 times as described previously and Streptavidin HRP (N200, thermo-Fisher) was incubated for 30 minutes at room temperature (25±1° C.). Plates were washed and the substrate (TMB, Pierce Thermo-Scientific) was added in the plate for 8±1 minute. The reaction was stopped using an acidic solution and plates were read at 450-630 nm.

Hu FcRn (BPS Bioscience) [2] = target: T1, Hu FcRn (BPS Bioscience); assay: ELISA, huFcRn coated, purified Affimer, pH 7.4
Protocol: as §1, with “100 ul” for “100 μl”, “in pH7.4)” for “in pH 7.4)”, “nm. The EC₅₀ was then calculated using the interpolated non-linear four-parameters standard curve (FIGS. 5A-5B, Table 5A).” for “nm.”

Hu FcRn (BPS Bioscience) [3] = target: T1, Hu FcRn (BPS Bioscience); assay: ELISA, huFcRn coated, purified Affimer, pH 6
Protocol: (§2) The binding of AFFIMER® to hu-FcRn was evaluated by enzyme linked immunosorbent assay (ELISA) in 384 well plate format. Hu FcRn (BPS Bioscience) was coated at 5 μg/ml on the plate in 40 mM MES, pH 6. Plates were washed 3 times with 100 ul of washing buffer (PBS, Tween 20 0.05%, pH 6) with a plate washer and saturated with Casein 5% (Sigma) in MES pH 6 for 60 minutes at room temperature (25±1° C.). Plates were washed as described previously. AFFIMER® and negative controls (mAb anti hFcRn (clone ADM31), negative controls) were then diluted in duplicate, and loaded on the plate for 90 minutes at room temperature (25±1° C.). Plates were washed 3 times as described previously. Biotinylated polyclonal antibody anti Cystatin (R&D Systems) was then diluted in dilution buffer (1% casein, 0.05% Tween 20, and 8 mM MES, pH 6) and incubated 60 minutes at room temperature (25±1° C.). Plates were washed 3 times as described previously and Streptavidin HRP (N200, Thermo-Fisher) was incubated for 30 minutes at room temperature (25±1° C.). Plates were washed and the substrate (TMB, Pierce Thermo-Scientific) was added in the plate for 8±1 minute. The reaction was stopped using an acidic solution and plates were read at 450-630 nm. The EC₅₀ was then calculated using the interpolated non-linear four-parameters standard curve (FIGS. 5A-5B and Table 5A).

Hu FcRn (BPS Bioscience) [4] = target: T1, Hu FcRn (BPS Bioscience); assay: ELISA, huFcRn coated; ratio of the EC50 at the two pH values
Protocol: as §2
The binding of AFFIMER® to hu-FcRn was evaluated by enzyme linked immunosorbent assay (ELISA) in 384 well plate format. Hu FcRn (BPS Bioscience) was coated at 5 μg/ml on the plate in PBS, pH 7.4. Plates were washed 3 times with 100 ul of washing buffer (PBS, Tween 20 0.05%, pH 7.4) with a plate washer and saturated with Casein 5% (Sigma) in MES pH 7.4 for 60 minutes at room temperature (25±1° C.). Plates were washed as described previously. AFFIMER® and controls (mAb anti hFcRn (ADM31), blank) were then diluted in duplicate, and loaded on the plate for 90 minutes at room temperature (25±1° C.). Plates were washed 3 times as described previously. […]

Hu FcRn (BPS Bioscience) [5] = target: T1, Hu FcRn (BPS Bioscience); assay: ELISA, huFcRn coated, pH 6
Protocol: The binding of AFFIMER® to Hu-FcRn was evaluated by enzyme linked immunosorbent assay (ELISA) in 384 well plate format. Hu FcRn (BPS Bioscience) was coated at 5 μg/ml on the plate in 40 mM MES, pH 6. Plates were washed 3 times with 100 μl of washing buffer (PBS, Tween 20 0.05%, pH 6) with a plate washer and saturated with Casein 5% (Sigma) in MES pH6 for 60 minutes at room temperature (25±1° C.). Plates were washed as described previously. AFFIMER® and negative controls (mAb anti hFcRn (clone ADM31), negative controls) were then diluted in duplicate, and loaded on the plate for 90 minutes at room temperature (25±1° C.). Plates were washed 3 times as described previously. Biotinylated polyclonal antibody anti Cystatin (R&D Systems) was then diluted in dilution Buffer (1% casein, 0.05% Tween 20, and 8 mM MES. It is in pH6) and incubated 60 minutes at room temperature (25±1° C.). Plates were washed 3 times as described previously and Streptavidin HRP (N200, thermo-Fisher) was incubated for 30 minutes at room temperature (25±1° C.). Plates were washed and the substrate (TMB, Pierce Thermo-Scientific) was added in the plate for 8±1 minute. The reaction was stopped using an acidic solution and plates were read at 450-630 nm. The EC50 was then calculated using the interpolated non-linear four-parameters standard curve (Table 4).

Hu FcRn (BPS Bioscience) [6] = target: T1, Hu FcRn (BPS Bioscience); assay: ELISA, huFcRn coated, purified Affimer fusion, pH 7.4
Protocol: as §1, with “100 ul” for “100 μl”, “in pH7.4)” for “in pH 7.4)”, “nm. The EC₅₀ was then calculated using the interpolated non-linear four-parameters standard curve (FIGS. 5A-5B, Table 5A).” for “nm.”

Hu FcRn (BPS Bioscience) [7] = target: T1, Hu FcRn (BPS Bioscience); assay: ELISA, huFcRn coated, purified Affimer fusion, pH 6
Protocol: as §2

EC50 (Hu FcRn (BPS Bioscience) [1]): 225 nM
EC50 (Hu FcRn (BPS Bioscience) [2]): 113 nM
EC50 (Hu FcRn (BPS Bioscience) [3]): 0.673 nM
pH 6/pH 7.4 (EC50 ratio) (Hu FcRn (BPS Bioscience) [4]): 168
EC50 (Hu FcRn (BPS Bioscience) [5]): 47.9 nM
B1: FcRn-35 (designed binder)
chain: MIPRGLSEAKPATPEIQEIVDKVKPQLEEKTNETYGKLEAVQYKTQVLAHRQYPPGPHSTNYYIKVRAGDNKYMHLKVFNGPYHFHHYYKHADRVLTGYQVDKNKDDELTGFHHHHHH
notes: AFFIMER (stefin A variant); also called LGC01-35

EC50 (Hu FcRn (BPS Bioscience) [1]): 0.895 nM
EC50 (Hu FcRn (BPS Bioscience) [2]): 0.5 nM
EC50 (Hu FcRn (BPS Bioscience) [3]): 0.003 nM
pH 6/pH 7.4 (EC50 ratio) (Hu FcRn (BPS Bioscience) [4]): 167
EC50 (Hu FcRn (BPS Bioscience) [5]): 0.14 nM
B2: FcRn-38 (designed binder)
chain: MIPRGLSEAKPATPEIQEIVDKVKPQLEEKTNETYGKLEAVQYKTQVLALSFNNYHWHSTNYYIKVRAGDNKYMHLKVFNGPKLRHDKLTHADRVLTGYQVDKNKDDELTGFHHHHHH
notes: AFFIMER (stefin A variant); also called LGC01-38

EC50 (Hu FcRn (BPS Bioscience) [6]): 4.3 nM
pH 6/pH 7.4 (EC50 ratio) (Hu FcRn (BPS Bioscience) [4]): 143
EC50 (Hu FcRn (BPS Bioscience) [7]): 0.03 nM
B3: AVA04-251 FX6 (designed binder)
chain: MIPRGLSEAKPATPEIQEIVDKVKPQLEEKTNETYGKLEAVQYKTQVLALSFNNYHWHSTNYYIKVRAGDNKYMHLKVFNGPKLRHDKLTHADRVLTGYQVDKNKDDELTGFAEAAAKEAAAKEAAAKEAAAKEAAAKEAAAKMIPRGLSEAKPATPEIQEIVDKVKPQLEEKTNETYGKLEAVQYKTQVLAREGRQDWVLSTNYYIKVRAGDNKYMHLKVFNGPWVPFPHQQLADRVLTGYQVDKNKDDELTGFAEAAAKEAAAKEAAAKEAAAKEAAAKEAAAKMIPRGLSEAKPATPEIQEIVDKVKPQLEEKTNETYGKLEAVQYKTQVLAREGRQDWVLSTNYYIKVRAGDNKYMHLKVFNGPWVPFPHQQLADRVLTGYQVDKNKDDELTGFHHHHHH
